Results from article PMC12726990, “Sialylated Clusterin Binds CD33 to Regulate Microglial Functions in Alzheimer's Disease” (Alzheimer's & Dementia, 2025).

Target: T1, Sialylated clusterin (CLU) (UniProt P10909 23-449, sialylated)
T1 construct: Clusterin (CLU), soluble sialylated protein
Assay: BLI + MST; quantitative binding assay; which of the two methods gave the value, and who was immobilised or labelled, is not told
Details: both partners purified

T1 sequence (P10909 23-449): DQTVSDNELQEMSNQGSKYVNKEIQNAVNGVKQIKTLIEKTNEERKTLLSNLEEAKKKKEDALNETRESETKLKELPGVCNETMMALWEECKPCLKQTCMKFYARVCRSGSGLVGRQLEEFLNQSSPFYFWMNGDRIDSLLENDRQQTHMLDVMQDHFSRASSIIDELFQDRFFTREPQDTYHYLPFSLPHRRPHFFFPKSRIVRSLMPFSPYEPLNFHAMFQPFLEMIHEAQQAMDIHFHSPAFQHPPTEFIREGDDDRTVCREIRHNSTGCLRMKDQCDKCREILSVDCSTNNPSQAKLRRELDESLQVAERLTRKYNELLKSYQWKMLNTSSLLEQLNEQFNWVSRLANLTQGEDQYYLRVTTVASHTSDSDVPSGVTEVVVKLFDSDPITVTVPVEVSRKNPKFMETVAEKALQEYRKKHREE

Kd: 28.9 ± 10.3 nM
B1: sialic-acid binding immunoglobulin-like lectin 3 receptor (Siglec-3 / CD33) (receptor)
chain: DPNFWLQVQESVTVQEGLCVLVPCTFFHPIPYYDKNSPVHGYWFREGAIISRDSPVATNKLDQEVQEETQGRFRLLGDPSRNNCSLSIVDARRRDNGSYFFRMERGSTKYSYKSPQLSVHVTDLTHRPKILIPGTLEPGHSKNLTCSVSWACEQGTPPIFSWLSAAPTSLGPRTTHSSVLIITPRPQDHGTNLTCQVKFAGAGVTTERTIQLNVTYVPQNPTTGIFPGDGSGKQETRAGVVH
